Laboratory results from PMC12172022, “Overexpression of TaPIP1A enhances drought and salt stress tolerance in Arabidopsis: cross-species conservation and molecular dynamics”.

Target: MBP-TaWRKY71 (Triticum aestivum (wheat) cv. KN9204, UniProt A0A3S6GV84 1-300)
Assay: EMSA; complex signal weakened by 200-fold unlabeled competitor; LightShift chemiluminescent EMSA, 6% gel (printed as SDS-PAGE); 25 min at room temperature; probe annealed in 10 mM Tris-HCl pH 7.6, 1 mM EDTA, 50 mM NaCl; binding buffer not stated
Settings: protein: recombinant; tags: N-terminal MBP (pMALC2X); label: 5' biotin; blunt

MBP-TaWRKY71, sequence (A0A3S6GV84 entry or part of it): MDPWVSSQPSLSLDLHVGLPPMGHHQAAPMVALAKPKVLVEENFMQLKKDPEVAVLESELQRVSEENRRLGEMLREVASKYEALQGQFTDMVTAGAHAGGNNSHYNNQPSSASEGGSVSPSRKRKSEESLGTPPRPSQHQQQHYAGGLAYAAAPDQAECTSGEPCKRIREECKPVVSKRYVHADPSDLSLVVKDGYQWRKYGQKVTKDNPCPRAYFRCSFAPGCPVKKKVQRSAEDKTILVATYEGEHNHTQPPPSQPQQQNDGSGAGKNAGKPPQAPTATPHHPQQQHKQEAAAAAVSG

B1: P-W probe (TaPIP1A promoter) (dsDNA)
DNA 1: CATGACATGACAGGTGAGGTGACACCACAAG
DNA 2: CTTGTGGTGTCACCTCACCTGTCATGTCATG
  binding result: binds
